The values that follow come from the supplement of paper PMC10899765.

Settings in all cases: 20 nM; 72 h
For series [1], the system named is MCF10A. Put plainly: one-nucleolus phenotype percent effect (relative to siNT 0% and siNOL11 100%); higher = more cells with one nucleolus (ribosome biogenesis inhibition). Here is the method:
(§1)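 After 72 h, cells were fixed and stained with Hoechst and anti-fibrillarin, and nucleoli per nucleus were counted with CellProfiler. Values are plate-adjusted percent effect for the one-nucleolus and 5+ nucleoli phenotypes, normalised to siNT (0%) and to the positive controls siNOL11 or siKIF11 (100%), as the mean of biological triplicates. Percent viability is the nuclei count relative to siNT.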

Series [2] relates to MCF10A. Put plainly: percent viability (nuclei count relative to siNT); higher = more viable cells. Here is the method:
as §1

The test system of series [3] is MCF10A. Put plainly: 5+ nucleoli phenotype percent effect (relative to siNT 0% and siKIF11 100%); higher = more cells with five or more nucleoli. Here is the method:
as §1

“ACUGGGUAGGUGGGGCUCCAGG [hsa-miR-6861-5p]”: the “one-nucleolus phenotype percent effect” value in series [1] amounted to 6.88%. Also, the percent viability in series [2] is 31.9%. Moreover, the “5+ nucleoli phenotype percent effect” value in series [3] was -15.5%.
On the same counts, the results for ACUGUAAACGCUUUCUGAUG [hsa-miR-3607-3p] are -18.5%, 124% and 42.2%.
Turning to ACUGUAGUAUGGGCACUUCCAG [hsa-miR-20b-3p], the “one-nucleolus phenotype percent effect” value in series [1] is 1.32%. Further, the percent viability in series [2] turned out to be 74%. Besides, the “5+ nucleoli phenotype percent effect” value in series [3] was -11.6%.
On the same counts, the results for “ACUGUCACUUCUCUGCCCAUAG [hsa-miR-6773-3p]” are 13.5%, 47.1% and -17.8%.
Regarding ACUGUUGCUAAUAUGCAACUCU [hsa-miR-367-5p], in series [1], the “one-nucleolus phenotype percent effect” value is -5.32%. In addition, the percent viability in series [2] was found to be 102%. In addition, in series [3], the “5+ nucleoli phenotype percent effect” value was 4.48%.
On the same counts, the results for “ACUUAAACGUGGAUGUACUUGCU [hsa-miR-302a-5p]” are -19%, 128% and 65.8%.
Turning to ACUUACAGACAAGAGCCUUGCUC [hsa-miR-600], the “one-nucleolus phenotype percent effect” value in series [1] was -28.1%. Moreover, the percent viability in series [2] is 145%. Further, in series [3], the “5+ nucleoli phenotype percent effect” value is 41.8%.
Take ACUUCACCUGGUCCACUAGCCGU [hsa-miR-412]: in series [1], the “one-nucleolus phenotype percent effect” value is -11.5%. The percent viability in series [2] came out at 118%. The “5+ nucleoli phenotype percent effect” value in series [3] is 26%.
On the same counts, the results for ACUUGGGCACUGAAACAAUGUCC [hsa-miR-635] are -11.4%, 65.6% and 32.7%.
Take “ACUUGGGCAGGAGGGACCCUGUAUG [hsa-miR-6774-5p]”: the “one-nucleolus phenotype percent effect” value in series [1] was 31.5%. In addition, in series [2], the percent viability stood at 22%. Further, the “5+ nucleoli phenotype percent effect” value in series [3] was -35.9%.
On the same counts, the results for ACUUGUAUGCUAGCUCAGGUAG [hsa-miR-643] are -31.1%, 165% and 68.8%.
On the same counts, the results for “ACUUUAACAUGGAAGUGCUUUC [hsa-miR-302b-5p]” are -20.3%, 101% and 35.7%.
As for “ACUUUAACAUGGAGGCACUUGC [hsa-miR-302d-5p]”, in series [1], the “one-nucleolus phenotype percent effect” value was -13.5%. The percent viability in series [2] was 92.5%. For the same sequence, in series [3], the “5+ nucleoli phenotype percent effect” value is 29.1%.
On to “ACUUUCCUCACUCCCGUGAAGU [hsa-miR-3124-3p]”, for which the “one-nucleolus phenotype percent effect” value in series [1] is -15.5%. Further, in series [2], the percent viability stood at 115%. Further, the “5+ nucleoli phenotype percent effect” value in series [3] is 49.4%.
On the same counts, the results for “AGAAAGGUGGAGGGGUUGUCAGA [hsa-miR-6730-5p]” are 47.3%, 24.7% and -33.5%.
On the same counts, the results for “AGAACUCUUGCAGUCUUAGAUGU [hsa-miR-4680-5p]” are -11.5%, 72% and -12.8%.
On the same counts, the results for AGAAGAAGGCGGUCGGUCUGCGG [hsa-miR-3185] are 33.8%, 29.1% and -27.8%.
For “AGAAGAUUGCAGAGUAAGUUCC [hsa-miR-4699-5p]”, the “one-nucleolus phenotype percent effect” value in series [1] worked out at 31.8%. Also, the percent viability in series [2] came out at 48.2%. Further, the “5+ nucleoli phenotype percent effect” value in series [3] is -32.9%.
Regarding AGAAGGAAAUUGAAUUCAUUUA [hsa-miR-1252], the “one-nucleolus phenotype percent effect” value in series [1] is -13.6%. In addition, the percent viability in series [2] stood at 148%. Also, the “5+ nucleoli phenotype percent effect” value in series [3] stood at 32.3%.
On the same counts, the results for AGAAGGCCUUUCCAUCUCUGU [hsa-miR-4493] are 41.7%, 45.9% and -36.6%.
On the same counts, the results for AGAAGGGAAGAUGGUGAC [hsa-miR-7515] are -2.73%, 42.5% and 4.41%.
Turning to AGAAGGGGUGAAAUUUAAACGU [hsa-miR-3179], the “one-nucleolus phenotype percent effect” value in series [1] was 60.8%. The percent viability in series [2] is 18.1%. Further, the “5+ nucleoli phenotype percent effect” value in series [3] was -30.9%.
For the sequence “AGAAGUAACUACGGUUUUUGCA [hsa-miR-548ao-5p]”, in series [1], the “one-nucleolus phenotype percent effect” value was -16.5%. Also, the percent viability in series [2] turned out to be 74.5%. The “5+ nucleoli phenotype percent effect” value in series [3] was 27.5%.
As to AGAAGUAAUUGCGGUUUUGCCA [hsa-miR-548ax], the “one-nucleolus phenotype percent effect” value in series [1] was found to be 4.38%. Further, the percent viability in series [2] is 53.4%. Besides, in series [3], the “5+ nucleoli phenotype percent effect” value was -15.7%.
AGAAGUGGCUAAUAAUAUUGA [hsa-miR-4795-5p]: the “one-nucleolus phenotype percent effect” value in series [1] was -14.7%. The percent viability in series [2] turned out to be 34.5%. Also, in series [3], the “5+ nucleoli phenotype percent effect” value is -2.9%.
On the same counts, the results for “AGAAUUGCGUUUGGACAAUCAGU [hsa-miR-2964a-3p]” are 34.8%, 28.5% and -29.2%.
As to “AGAAUUGUGGCUGGACAUCUGU [hsa-miR-219-2-3p]”, the “one-nucleolus phenotype percent effect” value in series [1] is 35.6%. Besides, the percent viability in series [2] is 33.5%. The “5+ nucleoli phenotype percent effect” value in series [3] is -41.8%.
In the case of “AGACACAUUUGGAGAGGGAACC [hsa-miR-642a-3p]”, the “one-nucleolus phenotype percent effect” value in series [1] is -16.3%. In series [2], the percent viability was determined as 90.2%. In addition, in series [3], the “5+ nucleoli phenotype percent effect” value was found to be 16%.
As to “AGACACAUUUGGAGAGGGACCC [hsa-miR-642b-3p]”, the “one-nucleolus phenotype percent effect” value in series [1] is -3.17%. Besides, in series [2], the percent viability is 71.1%. The “5+ nucleoli phenotype percent effect” value in series [3] is -6.68%.
Take AGACACUAUACGAGUCAUAU [hsa-miR-3117-5p]: the “one-nucleolus phenotype percent effect” value in series [1] was 0.975%. Further, the percent viability in series [2] stood at 120%. The “5+ nucleoli phenotype percent effect” value in series [3] is 12.6%.
Consider “AGACAGUAGUUCUUGCCUGGUU [hsa-miR-4645-3p]”, for which, in series [1], the “one-nucleolus phenotype percent effect” value amounted to 18.2%. Moreover, in series [2], the percent viability came out at 52.7%. The “5+ nucleoli phenotype percent effect” value in series [3] was -25%.
For the sequence “AGACAUCAAGAUCAGUCCCAAA [hsa-miR-3913-3p]”, the “one-nucleolus phenotype percent effect” value in series [1] amounted to 34.3%. Also, the percent viability in series [2] was 21.7%. Also, the “5+ nucleoli phenotype percent effect” value in series [3] came to 10.4%.
On the same counts, the results for AGACCAUGGGUUCUCAUUGU [hsa-miR-591] are -3.76%, 84.8% and 10.2%.
On the same counts, the results for AGACCCUGCAGCCUUCCCACC [hsa-miR-4725-5p] are 17.4%, 36% and -16%.
On the same counts, the results for AGACCCUGGUCUGCACUCUAUC [hsa-miR-504] are -10.9%, 64.6% and 3.4%.
As to AGACCUGGCCCAGACCUCAGC [hsa-miR-631], the “one-nucleolus phenotype percent effect” value in series [1] amounted to 24.7%. For the same sequence, the percent viability in series [2] worked out at 25.9%. The “5+ nucleoli phenotype percent effect” value in series [3] was -2.57%.
On the same counts, the results for “AGACUGACCUUCAACCCCACAG [hsa-miR-6855-3p]” are -4.32%, 75.7% and -20.8%.
On the same counts, the results for AGACUGACGGCUGGAGGCCCAU [hsa-miR-4513] are -13.8%, 43.7% and 21.1%.
In the case of AGACUUCCCAUUUGAAGGUGGC [hsa-miR-617], the “one-nucleolus phenotype percent effect” value in series [1] was found to be 43.9%. The percent viability in series [2] turned out to be 43.8%. Besides, the “5+ nucleoli phenotype percent effect” value in series [3] was -37.8%.
AGAGAAGAAGAUCAGCCUGCA [hsa-miR-1253]: in series [1], the “one-nucleolus phenotype percent effect” value is -16.8%. Also, in series [2], the percent viability was 84.6%. The “5+ nucleoli phenotype percent effect” value in series [3] was 37.9%.
On the same counts, the results for AGAGAUGAAGCGGGGGGGCG [hsa-miR-6088] are -6.8%, 91.6% and 6.48%.
Turning to AGAGAUGCCGCCUUGCUCCUU [hsa-miR-4708-5p], the “one-nucleolus phenotype percent effect” value in series [1] worked out at 21%. The percent viability in series [2] worked out at 45.7%. For the same sequence, in series [3], the “5+ nucleoli phenotype percent effect” value is -25.3%.
Consider AGAGAUUGGUAGAAAUCAGGU [hsa-miR-5186], for which the “one-nucleolus phenotype percent effect” value in series [1] is 28.7%. Further, the percent viability in series [2] was 33.8%. The “5+ nucleoli phenotype percent effect” value in series [3] was -25.3%.
On the same counts, the results for AGAGCUCACAGCUGUCCUUCUCUA [hsa-miR-3670] are 17.6%, 25.7% and -9.38%.
On the same counts, the results for “AGAGCUGAGACUAGAAAGCCCA [hsa-miR-3160-3p]” are 23.1%, 19.1% and -5.31%.
For the sequence AGAGCUGGCUGAAGGGCAG [hsa-miR-4487], the “one-nucleolus phenotype percent effect” value in series [1] was 25.5%. The percent viability in series [2] was 18.7%. Besides, the “5+ nucleoli phenotype percent effect” value in series [3] turned out to be 16.5%.
AGAGCUUAGCUGAUUGGUGAAC [hsa-miR-27b-5p]: the “one-nucleolus phenotype percent effect” value in series [1] was 17.8%. Also, the percent viability in series [2] is 78.6%. Also, in series [3], the “5+ nucleoli phenotype percent effect” value is -22.4%.
As to AGAGGACCCGUAGCUGCUAGAAGG [hsa-miR-4751], the “one-nucleolus phenotype percent effect” value in series [1] is -23.3%. Also, in series [2], the percent viability came to 106%. The “5+ nucleoli phenotype percent effect” value in series [3] turned out to be 41.7%.
